Experimental data: patent US20250177546A1, “ROR1-TARGETED BINDING MOLECULE AND USE THEREOF” (SANYOU BIOPHARMACEUTICALS CO., LTD., priority 2022, published 2025)

Tests used:
[1] = molecular target: huROR1-His (human ROR1 ECD AA30-406 with C-terminal His tag, made in house) (human) (UniProt Q01973); test: Gator (BLI) Advanced Kinetics; antibody 30 nM, huROR1-His 480-7.5 nM
[2] = molecular target: huROR1-His (human ROR1 ECD AA30-406 with C-terminal His tag, made in house) (human) (UniProt Q01973); test: ELISA, huROR1-His coated plate, goat anti-human Fc-HRP, OD450
[3] = molecular target: huROR1-His (human ROR1 ECD AA30-406 with C-terminal His tag, made in house) (human) (UniProt Q01973); test: as above; remark: listed apart in the source
[4] = molecular target: huROR1-His (human ROR1 ECD AA30-406 with C-terminal His tag, made in house) (human) (UniProt Q01973); test: as above; remark: listed apart in the source
[5] = molecular target: huROR1-His (human ROR1 ECD AA30-406 with C-terminal His tag, made in house) (human) (UniProt Q01973); test: as above; remark: listed apart in the source
[6] = molecular target: huROR1-His (human ROR1 ECD AA30-406 with C-terminal His tag, made in house) (human) (UniProt Q01973); test: as above; remark: listed apart in the source
[7] = molecular target: huROR1-His (human ROR1 ECD AA30-406 with C-terminal His tag, made in house) (human) (UniProt Q01973); test: ELISA, huROR1-His coated at 2 µg/mL, goat anti-human Fc-HRP, OD450
[8] = molecular target: huROR1-His (human ROR1 ECD AA30-406 with C-terminal His tag, made in house) (human) (UniProt Q01973); test: as above; remark: listed apart in the source
[9] = molecular target: human ROR1 on cells (full-length human ROR1 on huROR1-HEK293 cells; human ROR1 on A549 and HT-29 tumor cells) (human) (UniProt Q01973); test: flow cytometry (FACS) on A549 tumor cells, anti-human IgG-Fc secondary antibody, MFI
[10] = molecular target: human ROR1 on cells (full-length human ROR1 on huROR1-HEK293 cells; human ROR1 on A549 and HT-29 tumor cells) (human) (UniProt Q01973); test: as above; remark: listed apart in the source
[11] = molecular target: human ROR1 on cells (full-length human ROR1 on huROR1-HEK293 cells; human ROR1 on A549 and HT-29 tumor cells) (human) (UniProt Q01973); test: flow cytometry (FACS) on huROR1-HEK293 cells, anti-human IgG-Fc secondary antibody, MFI
[12] = molecular target: human ROR1 on cells (full-length human ROR1 on huROR1-HEK293 cells; human ROR1 on A549 and HT-29 tumor cells) (human) (UniProt Q01973); test: as above; remark: listed apart in the source
[13] = molecular target: huROR1-His (human ROR1 ECD AA30-406 with C-terminal His tag, made in house) (human) (UniProt Q01973); test: Biacore T200 SPR; huROR1-His amine-coupled (~75 RU), antibody 4 and 20 nM as analyte, 1:1 Langmuir fit
[14] = molecular target: human ROR1 on cells (full-length human ROR1 on huROR1-HEK293 cells; human ROR1 on A549 and HT-29 tumor cells) (human) (UniProt Q01973); test: flow cytometry (FACS) on HT29 (HT-29) tumor cells, anti-human IgG-Fc secondary antibody, MFI

Sequence of human ROR1 on cells (full-length human ROR1 on huROR1-HEK293 cells; human ROR1 on A549 and HT-29 tumor cells) (human) (Q01973 30-937): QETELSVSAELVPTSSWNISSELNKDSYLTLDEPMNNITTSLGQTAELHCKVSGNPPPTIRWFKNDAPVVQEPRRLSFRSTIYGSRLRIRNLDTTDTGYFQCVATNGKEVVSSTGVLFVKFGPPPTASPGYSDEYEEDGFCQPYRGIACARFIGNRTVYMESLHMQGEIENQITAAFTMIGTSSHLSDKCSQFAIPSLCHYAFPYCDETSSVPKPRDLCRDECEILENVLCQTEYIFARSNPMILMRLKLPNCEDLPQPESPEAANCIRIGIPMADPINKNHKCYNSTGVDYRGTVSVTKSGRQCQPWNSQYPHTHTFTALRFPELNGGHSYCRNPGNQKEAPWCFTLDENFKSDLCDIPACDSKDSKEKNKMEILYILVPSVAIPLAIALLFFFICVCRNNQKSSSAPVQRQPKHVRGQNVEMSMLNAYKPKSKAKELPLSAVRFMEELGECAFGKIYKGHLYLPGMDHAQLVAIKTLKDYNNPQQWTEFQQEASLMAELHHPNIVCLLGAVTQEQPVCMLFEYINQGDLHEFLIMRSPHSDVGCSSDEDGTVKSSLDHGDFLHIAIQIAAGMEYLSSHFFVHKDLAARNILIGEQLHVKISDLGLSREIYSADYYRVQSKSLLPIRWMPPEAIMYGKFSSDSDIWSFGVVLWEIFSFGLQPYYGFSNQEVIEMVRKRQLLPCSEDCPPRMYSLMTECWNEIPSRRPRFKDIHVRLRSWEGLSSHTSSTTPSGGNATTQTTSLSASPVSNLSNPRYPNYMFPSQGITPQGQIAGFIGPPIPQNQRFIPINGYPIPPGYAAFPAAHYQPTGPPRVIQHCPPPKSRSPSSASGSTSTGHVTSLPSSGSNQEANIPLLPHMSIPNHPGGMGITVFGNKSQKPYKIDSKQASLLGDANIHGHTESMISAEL
Sequence of huROR1-His (human ROR1 ECD AA30-406 with C-terminal His tag, made in house) (human) (Q01973 30-406 limits assumed): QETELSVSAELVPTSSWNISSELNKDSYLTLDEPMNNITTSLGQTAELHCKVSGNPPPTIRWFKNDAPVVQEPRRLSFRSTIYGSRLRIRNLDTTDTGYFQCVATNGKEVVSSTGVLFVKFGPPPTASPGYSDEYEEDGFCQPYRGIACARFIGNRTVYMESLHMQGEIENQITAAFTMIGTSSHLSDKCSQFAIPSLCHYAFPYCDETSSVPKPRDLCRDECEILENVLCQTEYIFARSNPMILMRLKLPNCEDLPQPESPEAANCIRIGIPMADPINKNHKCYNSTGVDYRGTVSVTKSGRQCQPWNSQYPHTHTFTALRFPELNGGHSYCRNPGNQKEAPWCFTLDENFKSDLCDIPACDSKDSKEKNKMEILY

Cirmtuzumab (positive control anti-ROR1 antibody, clone number 99961.1)
Kd [1]: 13.5 nM | koff [1]: 0.00712 s⁻¹ | kon [1]: 529000 M⁻¹ s⁻¹ | EC50 [2]: 3.24 ng/mL | EC50 [3]: 3 ng/mL | EC50 [4]: 2.56 ng/mL | EC50 [5]: 3.3 ng/mL | EC50 [6]: 3 ng/mL | EC50 [7]: 5.78 ng/mL | EC50 [8]: 5.12 ng/mL | EC50 (read off the curve) [9]: 3 ng/mL | EC50 (read off the curve) [10]: 10 ng/mL | EC50 (read off the curve) [11]: 60 ng/mL | EC50 (read off the curve) [12]: 50 ng/mL | Kd [13]: 1.98 nM | koff [13]: 0.00137 s⁻¹ | kon [13]: 694000 M⁻¹ s⁻¹ | t 1/2 [13]: 8.41 min | EC50 (read off the curve) [14]: 20 ng/mL
